This passage reports IFN-γ ELISPOT (fold against the p24fc-immunized group) and frequency of p24-specific tetramer^+ CD8^+ T cells results from patent US20140302070A1.

In assay [1] the target is MHC class I H2-K^d-… (HIV-1; mouse) (UniProt P01902).
For assay [2] the target is unchanged. As to the kind of experiment: H2-K^d-… tetramer staining of splenocytes, flow cytometry. Background: In flow cytometry, cells or beads pass a laser one at a time.

“splenocytes (T cells) of mice immunized with human sΔ42PD1-p24fc DNA (cells without a defined receptor)”: the IFN-γ ELISPOT (fold against the p24fc-immunized group) in assay [1] turned out to be 10.

For the substance “splenocytes (T cells) of mice vaccinated with msΔ42PD1-p24fc DNA (cells without a defined receptor)”, in assay [2], the frequency of p24-specific tetramer^+ CD8^+ T cells amounted to 17%.
